Measurements taken from the supplement of paper PMC7877785.
± gives the uncertainty stated by the source.

Experiment: self-splicing fitness, log relative to wild type (ln ratio); higher = more splicing; Tetrahymena group I intron in knt gene, E. coli kanamycin selection, DiMSum; sequences stand for … in CUCUCU…GGAGGGAAAAGUUAUCAGGCAUGCACCUGGUAGCUAGUCUUUAAACCAAUAGAUUGCAUCGGUUUAAAAGGCAAGACCGUCAAAUUGCGGGAAAGGGGUCAACAGCCGUUCAGUACCAAGUCUCAGGGGAAACUUUGAGAUGGCCUUGCAAAGGGUAUGGUAAUAAGCUGACGGACAUGGUCCUAACCACGCAGCCAAGUCCUAAGUCAACAGAUCUUCUGUUGAUAUGGAUGCAGUUCACAGACUAAAUGUCGGUCGGGGAAGAUGUAUUCUUCUCAUAAGAUAUAGUCGGACCUCUCCUUAAUGGGAGCUAGCGGAUGAAGUGAUGCAACACUGGAGCCGCUGGGAACUAAUUUGUAUGCGAAAGUAUAUUGAUUAGUUUUGGAGUACUCGUGGUCG
Method in brief: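 The eight P1ex-region nucleotides of an intron in the knt kanamycin-resistance gene on pET-22b(+) were all randomised and the library put into E. coli BL21(DE3). Six replicate transformations were grown overnight at 37°C or 30°C on LB agar with or without 25 μg/mL kanamycin, together with 100 μg/mL carbenicillin, 50 μM IPTG and 0.2% rhamnose. Colonies were pooled and amplicon-sequenced on an Illumina HiSeq 2500. Fitness from DiMSum is the error-weighted combination of wild-type-normalised replicate fold changes, kanamycin over none.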

Sequence	self-splicing fitness (ln) (30 °C)	self-splicing fitness (ln) (37 °C)
AAGAAGCAAUAUUACGAGAC	-4.15 ± 0.29	-2.85 ± 0.25
AAGAAGCAAUAUUACGAGCU	-0.998 ± 0.087	-1.22 ± 0.11
AAGAAGCAAUAUUACGAGGC	-3.86 ± 0.42	-2.48 ± 0.33
AAGAAGCAAUAUUACGAUUU	-0.181 ± 0.065	0.764 ± 0.1
AAGAAGCAAUAUUACGCAAU	-2.08 ± 0.18	-1.52 ± 0.2
AAGAAGCAAUAUUACGCCGC	-2.91 ± 0.25	-2.63 ± 0.26
AAGAAGCAAUAUUACGCCGU	-1.1 ± 0.13	-0.777 ± 0.15
AAGAAGCAAUAUUACGCGAA	-2.18 ± 0.1	-0.344 ± 0.093
AAGAAGCAAUAUUACGCGCU	-0.931 ± 0.11	0.0502 ± 0.12
AAGAAGCAAUAUUACGCGGA	-2.71 ± 0.16	-0.37 ± 0.12
AAGAAGCAAUAUUACGCUGU	-2.63 ± 0.13	-1.28 ± 0.12
AAGAAGCAAUAUUACGCUUC	-3 ± 0.26	
AAGAAGCAAUAUUACGGACU	0.093 ± 0.073	-0.443 ± 0.083
AAGAAGCAAUAUUACGGGAC	-2.85 ± 0.18	-2.63 ± 0.44
AAGAAGCAAUAUUACGGUGA	-1.11 ± 0.078	-0.329 ± 0.092
AAGAAGCAAUAUUACGUAGC	-3.08 ± 0.25	-2.32 ± 0.31
AAGAAGCAAUAUUACGUAUA	-2.18 ± 0.14	-1.17 ± 0.15
AAGAAGCAAUAUUACGUCUU	-2.83 ± 0.15	-1.63 ± 0.14
AAGAAGCAAUAUUACGUGAA	-2.16 ± 0.1	-0.97 ± 0.091
AAGAAGCAAUAUUACGUGAC	-3.34 ± 0.15	-1.67 ± 0.11
AAGAAGCAAUAUUACGUUAU	-3.52 ± 0.14	-1.88 ± 0.15
AAGAAGCAAUAUUACGUUCC	-1.29 ± 0.14	0.0973 ± 0.19
AAGAAGCAAUAUUACGUUGG	-3.25 ± 0.18	-2.71 ± 0.23
AAGCAGCAAUAUUACGAAUA	-2.44 ± 0.16	-1.21 ± 0.12
AAGCAGCAAUAUUACGAAUC	-2.44 ± 0.16	-2.12 ± 0.2
AAGCAGCAAUAUUACGACAA	-1.06 ± 0.075	-0.277 ± 0.072

Sequence	self-splicing fitness (ln) (30 °C)	self-splicing fitness (ln) (37 °C)
AAGCAGCAAUAUUACGACAU	-0.341 ± 0.011	-0.0663 ± 0.032
AAGCAGCAAUAUUACGACCG	-1.19 ± 0.099	-0.552 ± 0.15
AAGCAGCAAUAUUACGAGAA		-1.29 ± 0.33
AAGCAGCAAUAUUACGAGUC	-4.83 ± 0.32	-1.87 ± 0.18
AAGCAGCAAUAUUACGAGUU	-1.95 ± 0.077	-1.07 ± 0.086
AAGCAGCAAUAUUACGAUAG	-3.63 ± 0.2	-1.45 ± 0.15
AAGCAGCAAUAUUACGCAGA	-2.16 ± 0.11	-0.306 ± 0.091
AAGCAGCAAUAUUACGCAUG	-2.97 ± 0.2	-2.27 ± 0.2
AAGCAGCAAUAUUACGCGUC	-3.03 ± 0.16	-1.7 ± 0.15
AAGCAGCAAUAUUACGGCAG	-1.31 ± 0.065	-0.525 ± 0.087
AAGCAGCAAUAUUACGGCGG	-1.13 ± 0.12	-1.01 ± 0.14
AAGCAGCAAUAUUACGGGGC	-3.15 ± 0.23	-2.54 ± 0.24
AAGCAGCAAUAUUACGGGGU	-3.21 ± 0.13	-2.56 ± 0.16
AAGCAGCAAUAUUACGGGUC	-3.12 ± 0.12	-2.61 ± 0.18
AAGCAGCAAUAUUACGGUCU	-0.0787 ± 0.043	0.176 ± 0.063
AAGCAGCAAUAUUACGGUUU	-2.78 ± 0.12	-0.354 ± 0.096
AAGCAGCAAUAUUACGUCGA	-1.03 ± 0.12	-0.392 ± 0.11
AAGCAGCAAUAUUACGUUCA	-0.676 ± 0.056	0.0201 ± 0.064
AAGCAGCAAUAUUACGUUGA	-2.89 ± 0.13	-1.51 ± 0.11
AAGGAGCAAUAUUACGAAGA	-3.41 ± 0.29	-3.13 ± 0.37
AAGGAGCAAUAUUACGAAUG	-2.39 ± 0.22	
AAGGAGCAAUAUUACGACUC	-1.25 ± 0.15	-0.365 ± 0.17
AAGGAGCAAUAUUACGAGGU	-3.6 ± 0.23	-3.6 ± 0.47
AAGGAGCAAUAUUACGAUAA	-3.46 ± 0.25	-1.94 ± 0.18
AAGGAGCAAUAUUACGAUCU	-0.603 ± 0.085	-0.731 ± 0.11
AAGGAGCAAUAUUACGCGGG	-3.76 ± 0.46	

Sequence	self-splicing fitness (ln) (30 °C)	self-splicing fitness (ln) (37 °C)
AAGGAGCAAUAUUACGCGUU	-2.22 ± 0.17	-2.15 ± 0.23
AAGGAGCAAUAUUACGCUUU	-3.83 ± 0.32	-2.93 ± 0.38
AAGGAGCAAUAUUACGGCUC	-4.14 ± 0.37	-2.77 ± 0.36
AAGGAGCAAUAUUACGGUAU	-3.5 ± 0.26	-2.06 ± 0.31
AAGGAGCAAUAUUACGUCAU	-3.84 ± 0.2	-2.94 ± 0.24
AAGGAGCAAUAUUACGUCGC		-1.49 ± 0.35
AAGGAGCAAUAUUACGUGAG	-3.51 ± 0.25	-2.5 ± 0.21
AAGGAGCAAUAUUACGUGGA	-2.36 ± 0.2	-1.75 ± 0.2
AAGGAGCAAUAUUACGUUAU	-2.99 ± 0.2	-1.59 ± 0.22
AAGGAGCAAUAUUACGUUCG	-1.78 ± 0.11	-0.665 ± 0.2
AAGGAGCAAUAUUACGUUGG	-4.4 ± 0.27	-2.5 ± 0.25
AAGUAGCAAUAUUACGAACC	-1.4 ± 0.36	-1.57 ± 0.25
AAGUAGCAAUAUUACGACCC	0.421 ± 0.3	0.212 ± 0.29
AAGUAGCAAUAUUACGAGAU	-2.66 ± 0.16	-1.34 ± 0.15
AAGUAGCAAUAUUACGAGCA	-1.52 ± 0.15	-0.816 ± 0.14
AAGUAGCAAUAUUACGAUGU	-1.23 ± 0.1	-0.476 ± 0.12
AAGUAGCAAUAUUACGCGCA	-0.196 ± 0.11	0.0802 ± 0.13
AAGUAGCAAUAUUACGGACC		-0.466 ± 0.37
AAGUAGCAAUAUUACGGAGU	-2.54 ± 0.2	-1.9 ± 0.22
AAGUAGCAAUAUUACGGCAA	0.196 ± 0.18	-0.154 ± 0.22
AAGUAGCAAUAUUACGGCAC	-1.17 ± 0.17	-0.552 ± 0.17
AAGUAGCAAUAUUACGGCGU	-0.422 ± 0.091	0.27 ± 0.11
AAGUAGCAAUAUUACGGGAU	-3.14 ± 0.15	-1.61 ± 0.14
AAGUAGCAAUAUUACGGGCU	-2.02 ± 0.12	-1.44 ± 0.13
AAGUAGCAAUAUUACGGUGA	-1.03 ± 0.11	-0.771 ± 0.14
AAGUAGCAAUAUUACGGUUA	-0.841 ± 0.087	-0.334 ± 0.085
